Assay results from publication PMC10904049.
Blank lines part the entries; values can stand above or below the substance they belong to.

Assays:
[1] = target: CaVβ4 (UniProt D4A055); assay: ITC; settings: cited from earlier work
[2] = target: Cerulean-tagged CaVβ2B subunit (Cerulean-WT β2B); assay: flow cytometric FRET assay; settings: HEK293 cells, read off a plot
[3] = FSK (10 µM) + Cal (100 nM), parent: est. 100
[4] = no FSK, no Cal, parent: est. 7.8

Substance: Rem2 (from UniProt Q9WTY2)
Kd [1]: 156 µM

Substance: Venus-Rad-CAAX (WT Rad with a C-terminal CAAX motif) (from UniProt O88667) F280A; F294A
Kd ([2]; + FSK + Cal): 21 ×10^3
Kd ([2]; no FSK + Cal): 13 ×10^3

Substance: Venus-Rad-CAAX (WT Rad with a C-terminal CAAX motif) (from UniProt O88667) S256D; S272D; S289D; S298D; S300D; S305D
Kd ([2]; no FSK/Cal, parent: est. 9.3): 12 ×10^3

Substance: Venus-Rad-CAAX (WT Rad with a C-terminal CAAX motif) (from UniProt O88667) S272D; S300D
Kd ([2]; no FSK/Cal, parent: est. 9.3): 12 ×10^3

Substance: Venus-tagged WT Rad (from UniProt O88667) F280A; F294A
Kd ([2]; + FSK + Cal, parent: est. 100): 190 ×10^3
Kd ([2]; no FSK + Cal, parent: est. 8): 41 ×10^3

Substance: Venus-tagged WT Rad (from UniProt O88667) S25A; S38A
Kd [2, 3]: 44 ×10^3
Kd [2, 4]: 7.5 ×10^3

Substance: Venus-tagged WT Rad (from UniProt O88667) S25D; S38D
Kd ([2]; no FSK/Cal, parent: est. 7.8): 9.2 ×10^3

Substance: Venus-tagged WT Rad (from UniProt O88667) S25D; S38D; S272D; S300D
Kd ([2]; no FSK/Cal, parent: est. 7.8): 18 ×10^3

Substance: Venus-tagged WT Rad (from UniProt O88667) S25D; T26D; S38D; M39D
Kd ([2]; no FSK/Cal, parent: est. 7.8): 5.7 ×10^3

Substance: Venus-tagged WT Rad (from UniProt O88667) S272D; S300D
Kd ([2]; no FSK/Cal, parent: est. 7.8): 18 ×10^3

Further lines, results first:

Kd [2]: 140 ×10^3
Substance: Venus-Rad-CAAX (WT Rad with a C-terminal CAAX motif) (from UniProt O88667) R208A; L235A

Kd ([2]; no FSK/Cal, parent: est. 9.3): 11 ×10^3
Substance: Venus-Rad-CAAX (WT Rad with a C-terminal CAAX motif) (from UniProt O88667) S272D; S289D; S298D; S300D

Kd ([2]; parent: est. 8): 140 ×10^3
Substance: Venus-tagged WT Rad (from UniProt O88667) R208A; L235A

Kd ([2]; Cal (100 nM), no FSK): 14 ×10^3
Kd [2, 3]: 13 ×10^3
Kd ([2]; FSK (10 µM), no Cal): 11 ×10^3
Kd [2, 4]: 11 ×10^3
Substance: Venus-tagged WT Rad (from UniProt O88667) S25A; S38A; S272A; S300A

Kd ([2]; no FSK/Cal, parent: est. 7.8): 83 ×10^3
Substance: Venus-tagged WT Rad (from UniProt O88667) S256D; S272D; S289D; S298D; S300D; S305D

Kd [2, 3]: 17 ×10^3
Kd [2, 4]: 6.3 ×10^3
Substance: Venus-tagged WT Rad (from UniProt O88667) S272A; S300A

Kd ([2]; no FSK/Cal, parent: est. 7.8): 57 ×10^3
Substance: Venus-tagged WT Rad (from UniProt O88667) S272D; S289D; S298D; S300D
